T1: Plasmodium falciparum cytoplasmic phenylalanyl-tRNA synthetase (PfcFRS) beta subunit (Plasmodium falciparum)
T1 construct: Tags are not described; also called PfcFRS β subunit; Pf-β
T1 chain: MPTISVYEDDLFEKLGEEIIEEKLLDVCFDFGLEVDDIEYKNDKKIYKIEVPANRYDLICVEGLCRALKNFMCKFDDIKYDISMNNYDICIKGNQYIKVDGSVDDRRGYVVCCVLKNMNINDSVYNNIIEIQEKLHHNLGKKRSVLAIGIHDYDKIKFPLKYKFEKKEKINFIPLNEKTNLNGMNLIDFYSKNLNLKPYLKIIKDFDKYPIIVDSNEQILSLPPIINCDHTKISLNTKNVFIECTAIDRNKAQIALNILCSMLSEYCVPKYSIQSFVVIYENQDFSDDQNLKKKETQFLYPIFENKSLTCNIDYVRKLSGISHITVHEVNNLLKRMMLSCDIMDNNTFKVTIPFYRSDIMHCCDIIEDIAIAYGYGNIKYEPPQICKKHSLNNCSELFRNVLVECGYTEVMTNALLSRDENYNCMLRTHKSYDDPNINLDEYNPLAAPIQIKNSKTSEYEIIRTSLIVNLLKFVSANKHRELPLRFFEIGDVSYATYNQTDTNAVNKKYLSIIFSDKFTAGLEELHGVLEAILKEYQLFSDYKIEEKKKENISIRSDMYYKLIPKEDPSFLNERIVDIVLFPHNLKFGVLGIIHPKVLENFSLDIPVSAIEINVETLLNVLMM

T2: Plasmodium vivax cytoplasmic phenylalanyl-tRNA synthetase (PvcFRS) beta subunit (PVX_090880) (Plasmodium vivax, UniProt A5K464 1-617)
T2 construct: Said to be full-length; Tag or fusion residues from the vector are not described; Two copies stand in the α2β2 heterotetramer; also called PvcFRS β subunit; PvFRS β subunit
T2 sequence: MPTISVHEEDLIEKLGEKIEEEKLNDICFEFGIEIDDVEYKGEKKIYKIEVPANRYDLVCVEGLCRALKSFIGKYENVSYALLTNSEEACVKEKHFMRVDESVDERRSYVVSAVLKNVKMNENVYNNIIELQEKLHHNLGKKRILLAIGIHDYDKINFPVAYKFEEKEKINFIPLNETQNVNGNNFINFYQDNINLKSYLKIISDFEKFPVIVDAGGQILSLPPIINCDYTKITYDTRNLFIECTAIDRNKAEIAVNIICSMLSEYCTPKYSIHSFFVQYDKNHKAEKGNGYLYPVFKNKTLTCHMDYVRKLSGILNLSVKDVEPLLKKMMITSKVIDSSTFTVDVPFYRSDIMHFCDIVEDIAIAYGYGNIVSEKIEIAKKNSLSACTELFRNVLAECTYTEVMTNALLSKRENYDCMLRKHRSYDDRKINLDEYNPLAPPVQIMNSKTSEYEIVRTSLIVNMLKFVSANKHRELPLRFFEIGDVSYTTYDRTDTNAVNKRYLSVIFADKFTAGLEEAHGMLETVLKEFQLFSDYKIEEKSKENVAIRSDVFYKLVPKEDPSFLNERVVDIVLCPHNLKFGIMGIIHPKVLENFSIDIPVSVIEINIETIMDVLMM

B1: Plasmodium falciparum cytoplasmic phenylalanyl-tRNA synthetase (PfcFRS) alpha subunit (enzyme)
chain: MSTNNVEEKKNEELYNLLNILEEEFNLSKIENKNNNKNDDGDDDDVNKREDNNNNEYYKKLKDEKGLDVLINEYTTSLKISKKYNIDHNKVMGMIKKLETLYYIINLIKSFNTYHLSDEGKQYLKEGSPEFIVIKYVIQNNKCTLEDLKKNLGKIGDIGLNTNLKNRTIQLNKADKCLTCNCNLHDIQDFTQIYLDIINQYGHDEELLFAHLKNKNHTKNALNNNEMKNSCKDNNIINNLIQDLKKRKLLEIKKNSYSHVIKTSIFKKDIKKQITDINYLLLKNEEYKKYDIKKYNFFSSGKKINKGNIHLLTKQMRTFKEIFFSLGFEEMETHNYVESSFWCFDALYIPQQHPSRDLQDTFFIKEPETCIDKFVDTEYIDNIKRVHTHGDYGSFGWNYKWKLEESKKNVLRTHTTANSCRALFKLAKEYKEAGCIKPKKYFSIDRVFRNENLDSTHLAEFHQVEGLIIDKNIGLSHLIGTLAAFYKHIGIHKLKFKPTFNPYTEPSMEIYGYHEQSKKWLEVGNSGIFRPEMLRSMGFSEEVSVIAWGLSLERPTMIKYNIKNIRDLFGYKSVV
notes: Tags are not described; also called PfcFRS α subunit
B2: Plasmodium vivax cytoplasmic phenylalanyl-tRNA synthetase (PvcFRS) alpha subunit (PVX_081300) (enzyme)
chain: MQAKAQEEQKGEELSQFLQALEEEFALCQEGGGDKREADGPSLENAEAEELANRRAYYLQLKEERNVLVEESKHVTSLHMSSKHNIEHAKVLGMAKKLETLYYVVNHVRSFNTYQLTEEGKEYLRDGSPEHVTLRYVMEQEGCTLEDLKKLFGKKGEIGLNINLKKKKIELRKSDKRLFPHVEGSAHSLVDETRCYLQKVEAHGNDEGALVSHLKGILPPEKGEKKEEDEANNLIKELKKRKLIEAKKISYIYIIRTNLFTKEIKKQITDLTYLLIKNEEYKKYQVKKYNFFSSGKKMNKGNIHLLIRQMRTFKDVFVSLGFEEMNTHNYVESSFWCFDALYIPQQHPSRDLQDTFFIKVPEMCQEEFTDQSYIENVKRVHSVGDYGSFGWNYQWELKSTKKNVLRTHTTANSCRALFQLAKEYQKTGSIIPKKFFSIDRVFRNENLDSTHLAEFHQVEGLIIDRNLGLSHLIGTLSAFYKYIGISKLRFKPTFNPYTEPSMEVYGYHEENKKWLEVGNSGIFRPEMLRAMGFPPEVSVIAWGLSLERPTMIKYSIRNIRDLFGYRSVI
notes: Said to be full-length; Tag residues from the vector are not described; Two copies stand in the α2β2 heterotetramer; Residues 1-270 were disordered in the crystal; also called PvcFRS α subunit; PvFRS α subunit

Key:
[1] = target: T1, Plasmodium falciparum cytoplasmic …; assay: SDS-PAGE of the final purified protein (co-purification of the α and β subunits)
[2] = target: T2, Plasmodium vivax cytoplasmic …; assay: analytical gel filtration (Superdex 200) of co-expressed, co-purified alpha and beta subunits

| Binder | binding result [1] | binding result [2] |
| --- | --- | --- |
| B1 | binds |  |
| B2 |  | binds |
